Positions count from the first letter of the chain named. Names may count otherwise. Values belong to the molecule of their own block, whether it stands above or below them.
Columns and labels:
C3c = C3c (Homo sapiens, UniProt P01024); assay: Binding profile: binding to C3c; conditions: relative to the binding of the negative control mIgG2 antibody
Description: (§1) The anti-C3 antibodies described herein were characterized for their ability to bind a number of other components of the complement cascade. Antibodies were screened for binding to C3, C3a, C3b, C3c, C3d, iC3b, and Factor Bb. All the anti-C3 antibodies included in Table 13 were able to block complement activation. The data are relative to the binding of the negative control mIgG2 antibody.

iC3b = iC3b (Homo sapiens, UniProt P01024); assay: Binding profile: binding to iC3b; conditions: relative to the binding of the negative control mIgG2 antibody
Sequence of iC3b (P01024 23-667 limits assumed): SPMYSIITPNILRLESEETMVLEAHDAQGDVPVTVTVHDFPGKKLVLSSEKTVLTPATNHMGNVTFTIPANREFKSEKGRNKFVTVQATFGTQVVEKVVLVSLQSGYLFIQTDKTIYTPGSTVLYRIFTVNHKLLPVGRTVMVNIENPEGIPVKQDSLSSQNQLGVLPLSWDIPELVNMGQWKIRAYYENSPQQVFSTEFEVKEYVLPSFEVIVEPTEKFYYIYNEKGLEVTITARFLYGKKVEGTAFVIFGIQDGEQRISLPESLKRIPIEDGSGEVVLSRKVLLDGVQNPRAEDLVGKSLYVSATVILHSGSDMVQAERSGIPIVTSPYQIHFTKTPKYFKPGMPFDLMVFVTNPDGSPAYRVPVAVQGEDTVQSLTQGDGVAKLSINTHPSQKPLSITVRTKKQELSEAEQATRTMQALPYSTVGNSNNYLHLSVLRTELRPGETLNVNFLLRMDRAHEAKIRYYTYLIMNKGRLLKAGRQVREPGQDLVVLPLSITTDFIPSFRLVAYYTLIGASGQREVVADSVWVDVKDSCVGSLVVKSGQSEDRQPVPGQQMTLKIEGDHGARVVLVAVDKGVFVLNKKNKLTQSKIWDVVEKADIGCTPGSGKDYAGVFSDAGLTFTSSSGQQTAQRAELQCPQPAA
Sequence of iC3b (P01024 749-1303 limits assumed): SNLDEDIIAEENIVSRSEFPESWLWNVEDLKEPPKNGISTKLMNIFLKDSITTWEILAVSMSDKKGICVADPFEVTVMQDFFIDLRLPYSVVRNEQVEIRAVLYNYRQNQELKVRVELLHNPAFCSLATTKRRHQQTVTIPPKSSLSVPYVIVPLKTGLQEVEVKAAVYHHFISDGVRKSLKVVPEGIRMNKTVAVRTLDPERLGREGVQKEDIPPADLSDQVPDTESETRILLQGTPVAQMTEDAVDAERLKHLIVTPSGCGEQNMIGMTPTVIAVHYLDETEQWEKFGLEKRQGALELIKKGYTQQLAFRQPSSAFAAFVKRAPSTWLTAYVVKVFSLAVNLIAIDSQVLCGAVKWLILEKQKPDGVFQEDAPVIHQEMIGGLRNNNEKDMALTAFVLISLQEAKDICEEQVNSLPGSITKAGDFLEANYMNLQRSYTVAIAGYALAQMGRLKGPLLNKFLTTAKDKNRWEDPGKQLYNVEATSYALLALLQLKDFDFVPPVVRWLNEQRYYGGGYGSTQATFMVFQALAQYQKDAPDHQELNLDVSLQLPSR
Sequence of iC3b (P01024 1321-1663 limits assumed): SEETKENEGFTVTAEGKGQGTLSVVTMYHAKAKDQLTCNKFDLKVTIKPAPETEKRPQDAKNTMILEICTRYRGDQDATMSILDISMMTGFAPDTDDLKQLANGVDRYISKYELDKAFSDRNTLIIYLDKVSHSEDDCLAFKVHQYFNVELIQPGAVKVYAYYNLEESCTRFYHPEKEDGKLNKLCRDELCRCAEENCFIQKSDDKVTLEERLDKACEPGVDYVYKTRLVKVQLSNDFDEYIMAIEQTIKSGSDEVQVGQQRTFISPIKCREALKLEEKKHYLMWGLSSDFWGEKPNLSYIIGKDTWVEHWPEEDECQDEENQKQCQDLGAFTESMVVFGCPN
Description: as §1

Factor Bb = Factor Bb (Homo sapiens, UniProt P00751); assay: Binding profile: binding to Factor Bb; conditions: relative to the binding of the negative control mIgG2 antibody
Sequence of Factor Bb (P00751 260-764 limits assumed): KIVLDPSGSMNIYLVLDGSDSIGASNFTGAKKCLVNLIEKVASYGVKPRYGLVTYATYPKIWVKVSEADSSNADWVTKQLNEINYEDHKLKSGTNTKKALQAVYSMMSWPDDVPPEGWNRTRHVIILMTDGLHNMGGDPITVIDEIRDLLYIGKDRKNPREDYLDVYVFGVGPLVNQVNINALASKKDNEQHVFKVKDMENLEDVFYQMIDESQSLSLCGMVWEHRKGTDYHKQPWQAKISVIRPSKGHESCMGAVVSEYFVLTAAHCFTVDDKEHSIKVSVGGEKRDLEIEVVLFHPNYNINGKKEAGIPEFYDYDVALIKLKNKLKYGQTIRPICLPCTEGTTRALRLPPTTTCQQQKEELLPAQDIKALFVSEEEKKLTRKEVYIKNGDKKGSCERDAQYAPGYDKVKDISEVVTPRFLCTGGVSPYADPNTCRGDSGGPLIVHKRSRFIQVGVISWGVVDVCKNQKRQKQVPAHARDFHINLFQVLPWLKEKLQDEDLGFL
Description: as §1

C3 [1] = target: T1, C3 (Homo sapiens, UniProt P01024); assay: Binding profile: binding to C3; conditions: summary in words of Table 13
T1 sequence (P01024 23-1663): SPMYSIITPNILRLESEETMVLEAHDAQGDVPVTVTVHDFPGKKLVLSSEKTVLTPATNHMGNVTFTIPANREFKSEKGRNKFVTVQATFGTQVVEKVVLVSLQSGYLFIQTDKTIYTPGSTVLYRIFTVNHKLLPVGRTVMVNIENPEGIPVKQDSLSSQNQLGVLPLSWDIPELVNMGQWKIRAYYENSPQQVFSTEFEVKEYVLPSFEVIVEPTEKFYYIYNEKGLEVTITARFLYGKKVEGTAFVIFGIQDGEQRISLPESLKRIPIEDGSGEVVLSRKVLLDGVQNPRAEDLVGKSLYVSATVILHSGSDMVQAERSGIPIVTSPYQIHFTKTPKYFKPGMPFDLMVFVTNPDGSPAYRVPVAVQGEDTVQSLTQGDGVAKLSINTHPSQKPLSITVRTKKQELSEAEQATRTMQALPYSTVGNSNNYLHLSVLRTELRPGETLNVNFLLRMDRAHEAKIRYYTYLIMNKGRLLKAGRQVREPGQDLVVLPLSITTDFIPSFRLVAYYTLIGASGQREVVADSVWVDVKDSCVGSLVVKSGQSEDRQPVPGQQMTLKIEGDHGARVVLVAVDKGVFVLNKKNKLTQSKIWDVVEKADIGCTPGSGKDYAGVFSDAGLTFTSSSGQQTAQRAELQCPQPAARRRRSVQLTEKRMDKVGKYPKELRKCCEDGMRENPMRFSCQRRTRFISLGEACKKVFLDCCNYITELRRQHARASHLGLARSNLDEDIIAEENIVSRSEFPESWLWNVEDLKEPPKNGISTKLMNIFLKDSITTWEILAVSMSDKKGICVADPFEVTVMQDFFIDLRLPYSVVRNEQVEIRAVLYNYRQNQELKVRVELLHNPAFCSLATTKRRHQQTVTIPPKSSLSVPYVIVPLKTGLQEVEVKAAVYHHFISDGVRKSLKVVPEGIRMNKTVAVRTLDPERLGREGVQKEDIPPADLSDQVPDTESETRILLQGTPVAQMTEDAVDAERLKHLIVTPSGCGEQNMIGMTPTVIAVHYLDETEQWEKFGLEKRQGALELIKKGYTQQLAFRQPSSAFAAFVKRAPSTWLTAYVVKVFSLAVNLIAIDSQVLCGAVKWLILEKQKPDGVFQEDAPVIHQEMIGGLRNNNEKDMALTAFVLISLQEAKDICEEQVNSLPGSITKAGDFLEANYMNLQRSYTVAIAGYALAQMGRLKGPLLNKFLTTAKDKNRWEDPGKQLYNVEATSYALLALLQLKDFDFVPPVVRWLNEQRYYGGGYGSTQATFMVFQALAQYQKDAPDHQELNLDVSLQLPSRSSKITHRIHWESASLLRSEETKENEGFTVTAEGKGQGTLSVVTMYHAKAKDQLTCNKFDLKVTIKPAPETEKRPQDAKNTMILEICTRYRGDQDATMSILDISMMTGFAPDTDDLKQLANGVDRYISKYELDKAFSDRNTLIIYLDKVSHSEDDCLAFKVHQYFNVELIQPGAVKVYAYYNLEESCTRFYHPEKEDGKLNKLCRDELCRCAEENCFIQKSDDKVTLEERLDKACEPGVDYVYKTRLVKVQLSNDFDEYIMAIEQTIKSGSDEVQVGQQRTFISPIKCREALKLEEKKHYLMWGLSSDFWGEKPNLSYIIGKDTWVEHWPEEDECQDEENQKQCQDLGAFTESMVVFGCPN
Description: as §1

C3b = C3b (Homo sapiens, UniProt P01024); assay: Binding profile: binding to C3b; conditions: relative to the binding of the negative control mIgG2 antibody
Sequence of C3b (P01024 23-667 limits assumed): as the sequence (P01024 23-667 limits assumed) above
Sequence of C3b (P01024 749-1663 limits assumed): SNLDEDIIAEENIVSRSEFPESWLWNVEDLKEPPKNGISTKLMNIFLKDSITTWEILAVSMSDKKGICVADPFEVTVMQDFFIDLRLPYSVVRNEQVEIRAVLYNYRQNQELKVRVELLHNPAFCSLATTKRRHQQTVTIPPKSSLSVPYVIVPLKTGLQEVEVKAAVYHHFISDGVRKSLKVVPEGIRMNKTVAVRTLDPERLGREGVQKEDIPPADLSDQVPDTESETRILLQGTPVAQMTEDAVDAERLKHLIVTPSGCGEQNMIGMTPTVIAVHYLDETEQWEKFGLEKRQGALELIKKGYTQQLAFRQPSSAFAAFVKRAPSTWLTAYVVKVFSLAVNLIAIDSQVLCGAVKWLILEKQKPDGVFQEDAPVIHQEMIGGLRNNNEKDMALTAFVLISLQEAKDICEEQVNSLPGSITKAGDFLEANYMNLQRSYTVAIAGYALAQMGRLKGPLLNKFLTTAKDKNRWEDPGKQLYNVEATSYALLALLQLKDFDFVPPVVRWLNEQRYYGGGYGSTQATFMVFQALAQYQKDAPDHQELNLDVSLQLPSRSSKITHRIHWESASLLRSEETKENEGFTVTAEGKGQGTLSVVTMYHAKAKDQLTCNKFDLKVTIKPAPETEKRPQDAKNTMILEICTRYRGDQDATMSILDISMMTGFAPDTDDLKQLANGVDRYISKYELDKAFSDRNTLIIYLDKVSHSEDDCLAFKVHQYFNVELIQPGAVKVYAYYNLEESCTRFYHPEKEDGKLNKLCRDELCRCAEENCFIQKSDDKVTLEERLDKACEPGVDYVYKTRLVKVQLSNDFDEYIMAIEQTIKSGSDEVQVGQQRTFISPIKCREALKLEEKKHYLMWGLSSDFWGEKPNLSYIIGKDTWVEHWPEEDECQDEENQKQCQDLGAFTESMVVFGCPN
Description: as §1

[2] = Solubility of Hz38G10 dsscFv by micro-concentration; type: physicochemical; conditions: 10 mM sodium phosphate, 40 mM sodium chloride, 0.03% polysorbate 20, 5% sucrose, pH 6.2
Procedure: The purified antibodies were dialyzed into buffer consisting of 10 mM sodium phosphate, 40 mM sodium chloride, 0.03% polysorbate 20, and 5% sucrose, pH 6.2. The solution was micro-concentrated using 10,000 Da NMWCO spin concentrator at 3,000×g at room temperature. Protein concentration was measured on an Agilent Cary 60 UV-VIS Solo VPE spectrophotometer.

C3 [3] = target: T1, C3; assay: Binding affinity by Biacore, human C3
Procedure: The binding affinities of exemplary anti-C3 antibodies to human C3 and cyno C3 were measured using a Biacore system (GE Healthcare LifeSciences). Briefly, anti-Fc antibody (Sigma-Aldrich) was immobilized on all four flow cells of a CM5 chip using amine coupling reagents (GE Healthcare LifeSciences). Antibodies were captured on flow cells 2, 3, and 4 using flow cell 1 as a reference. Concentrations ranging from 0.62-40 nM of human C3 or cyno C3 were injected at a flow rate of 50 μL/min at 37° C. Kinetic data were collected over time and fit using the simultaneous global fit equation to yield affinity constants (KD values) for each antibody.
More recently, a number of compstatin analogs and derivatives have been generated and studied. […] A Biacore system was used to assess the binding affinities of the different molecules to human C3. […] Evaluation of COMP or COMP-PEG binding to human C3 was carried out as follows. Human C3 was immobilized on flow cell 2 of a CM5 chip using amine-coupling reagents (GE Healthcare LifeSciences) and flow cell 1 (immobilized with a similar amount of human IgG) was used as a reference. […] Similar experiments were set up with COMP-PEG (concentration range of 25-400 nM) for evaluation at 37° C. COMP-PEG binding to human C3 was also evaluated at 25° C. with modifications. […]

[4] = Elevated pH stress test, deamidation at N55 of heavy chain CDR2; type: physicochemical

Sequence of C3c (P01024 23-667 limits assumed): as the sequence (P01024 23-667 limits assumed) above
Sequence of C3c (P01024 749-954 limits assumed): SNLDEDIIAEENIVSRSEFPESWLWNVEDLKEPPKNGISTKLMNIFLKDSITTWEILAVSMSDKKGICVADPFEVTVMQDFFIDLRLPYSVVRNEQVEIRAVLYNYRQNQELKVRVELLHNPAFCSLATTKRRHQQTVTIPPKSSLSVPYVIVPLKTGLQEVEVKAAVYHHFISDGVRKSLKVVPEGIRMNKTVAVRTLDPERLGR
Sequence of C3c (P01024 1321-1663 limits assumed): as the sequence (P01024 1321-1663 limits assumed) above

binding to C3c (C3c): 0.43
binding to iC3b (iC3b): 0.49
binding to Factor Bb (Factor Bb): 0.00
B1: 62F2: mouse anti-C3 monoclonal antibody; VH SEQ ID NO:105, VL SEQ ID NO:106 (antibody, V domains shown)
VH: DVQLQESGPDLVKPSQSLSLTCTVTGYSITSGYSLHWIRQFPGNKLEWMGYIHYSGSTNYNPSLKSRISITRDTSKNQFFLKLNSVTSEDTATYHCARAWDYLDYWGQGTTLTVSS
VL: DIQMTQSPASLSASVGETVTITCRASENIYSQLAWYQQKQGKSPQLLVYDAKTLAEGVPSRFSGSGSDTQFSLKIISLQPEDFGRYYCHHHFGILYTFGGGTKLEMK

binding to C3c (C3c): 0.45
binding to iC3b (iC3b): 0.45
B2: 38F5: mouse anti-C3 monoclonal antibody; VH SEQ ID NO:101, VL SEQ ID NO:102 (antibody, V domains shown)
VH: EVMLVESGGALVKPGGSLKLSCTASGFTFSNYAMSWVRQTPEKRLEWVAQTISSGGRYTYYPDSVKGRFTISRDNARNTLYLQMSSLRSEDTAMYYCVRRYYGNSYWYFDVWGAGTTVTVSS
VL: DIVMTQSPSSLSVSAGEKVTMNCKSSQSLLNSGNQKHYLTWYQQKPGQPPKLLIYGASTRGSGVPDRFTGSGSGTDFTLTISSVQAEDLAVYYCQNDHSYPYTFGGGTKLEIK

binding to C3b (C3b): 0.06
binding to C3c (C3c): 0.13
binding to iC3b (iC3b): 0.06
B3: 38G10: mouse anti-C3 monoclonal antibody; VH SEQ ID NO:18, VL SEQ ID NO:19 (antibody, V domains shown)
VH: EVQLQQSGPELVKPGDSVKMSCKASGYTFTDFYMDWVKQSHGKSLEWIGYIYPHNGGTTYNQNFTGKATLTVDKSSNTAYMELHSLTSEDSAVYYCARRGGFDFDYWGQGTTLTVSS
VL: NIVMTQSPKSMSLSVGERVTLRCKASENVDTYVSWYQQKPEQSPKLLIYGASNRYTGVPDRFTGSGSATEFTLTISSVQAEDLVGYHCGQSHSYPLTFGAGTKLELK
C3 binding profile (C3 versus fragments of the complement cascade) (C3 [1]): bound preferentially to C3 with no detectable or very limited binding to any of the fragments of the complement cascade

binding to C3c (C3c): 0.55
binding to iC3b (iC3b): 0.72
binding to Factor Bb (Factor Bb): 0.00
B4: 63A3: mouse anti-C3 monoclonal antibody; VH SEQ ID NO:107, VL SEQ ID NO:108 (antibody, V domains shown)
VH: DVQLQESGPGLVKPSQSLSLTCSVTGYSITSGYYWNWIRQFPGNKLEWMGYIRYDGSNNYNPSLKNRISITRDTSKNQVFLKLNSVTPEDTATYYCARHYGYDGGAFDFWGQGTTLTVSS
VL: DIQMTQSPASLSASVGETVTITCRTSENIYNYLVWYQQKQGKSPQLLVYNAKTLEEGVPSRFSGSGSGTQFSLKVNSLQPEDFGSYYCQHHYGTPFTFGSGTKLEIK

binding to C3c (C3c): 0.17
binding to iC3b (iC3b): 0.29
B5: 3D8: mouse anti-C3 monoclonal antibody; VH SEQ ID NO:91, VL SEQ ID NO:92 (antibody, V domains shown)
VH: EIQLQQSGAELVKPGASVKISCKASGYSFTGYNMNWVKQSHGKSLEWIGNINPYYGSTNYNQKFKGKATLTVDKSSTTAYMQLDSLTSEDSAVYYCARGYYGGNYPFAYWGQGTLVTVSA
VL: B4 VL with T25A, N31S, V34A, E55A, V75I, H91Y, F96Y, S100G, T102S, L104V

B6: Hz38G10 dsscFv: VL-linker-VH disulfide-linked scFv of Hz38G10, SEQ ID NO:113 (protein)
scFv: MDIQMTQSPSSLSASVGDRVTITCKASENVDTYVSWYQQKPGKAPKLLIYGASNRYTGVPSRFSGSGSGTDFTFTISSLQPEDIATYHCGQSHSYPLTFGCGTKLEIKGGGGSGGGGSGGGGSQVQLVQSGAEVKKPGASVKVSCKASGYTFTDFYMDWVRQAPGQCLEWMGYIYPHNGGTTYNQQFTGRVTITVDKSASTAYMELSSLRSEDTAVYYCARRGGFDFDYWGQGTLVTVSS
protein concentration reached with no visible aggregation [2]: 229 mg/mL

binding to C3c (C3c): 0.22
binding to iC3b (iC3b): 0.25
B7: 3G8: mouse anti-C3 monoclonal antibody; VH SEQ ID NO:93, VL SEQ ID NO:94 (antibody, V domains shown)
VH: EIQLQQSGAELVKPGASVKISCMASGYSFTGYNMNWVKQSHGKGLEWIGNINPYYDSTSYNQKFKGKATLTVDKSSSTAYMQLNSLTSEDSAVYYCARENYDFVGFAYWGQGTLVTVSA
VL: QIVLSQSPAILSASPGEKVTMTCRASSSVSYMHWFQQKPGSSPKPWIYVTSNLASGVPPRFSGSGSGTSYSLTISRVEAEDAATYYCQQWSTNPLTFGAGTKLELK

binding to C3c (C3c): 0.28
binding to Factor Bb (Factor Bb): 0.00
B8: 28C3: mouse anti-C3 monoclonal antibody; VH SEQ ID NO:99, VL SEQ ID NO:100 (antibody, V domains shown)
VH: QVQLQQSGPELVKPGASVKISCKASGYAFNSCWMNWVKQRPGKGLEWIGRIYPGDGDTNYNGKFKGKATLTADKSSTTAYMQLSSLTSEDSAVYFCAREGRNYGYEDYWGQGTTLTVSS
VL: DIVLTQSPASLAVSLGQRATISCKASQSVDYDGDSYMNWYQQKPGQPPKLLIYAASDLESGIPARFSGSGSGTDFTLNIHPVEEEDAATYYCQQANEDPRTFGGGTKLEIK

binding to human C3 as compared to Hz38G10 (C3 [3]): reduced binding
B9: Hz38G10(N55D): Hz38G10 variant with N55D mutation in heavy chain CDR2, mimics a fully deamidated molecule (antibody, V domains shown)
VH: QVQLVQSGAEVKKPGASVKVSCKASGYTFTDFYMDWVRQAPGQRLEWMGYIYPHDGGTTYNQQFTGRVTITVDKSASTAYMELSSLRSEDTAVYYCARRGGFDFDYWGQGTLVTVSS
VL: DIQMTQSPSSLSASVGDRVTITCKASENVDTYVSWYQQKPGKAPKLLIYGASNRYTGVPSRFSGSGSGTDFTFTISSLQPEDIATYHCGQSHSYPLTFGQGTKLEIK

B10: Hz38G10 (G56A): Hz38G10 variant with G56A mutation in heavy chain CDR2; VH SEQ ID NO:21, VL SEQ ID NO:25 (antibody, V domains shown)
VH: B9 VH with D55N, G56A
VL: B9 VL
deamidation at the asparagine N55, Day 0 ([4]; pH 8.5, Day 0): 0.66%
deamidation at the asparagine N55, Day 7 ([4]; pH 8.5, Day 7): 1.0%
